± gives the uncertainty stated by the source.
Assay: self-splicing fitness, log relative to wild type (ln ratio); higher = more splicing; Tetrahymena group I intron in knt gene, E. coli kanamycin selection, DiMSum; sequences stand for … in CUCUCU…GGAGGGAAAAGUUAUCAGGCAUGCACCUGGUAGCUAGUCUUUAAACCAAUAGAUUGCAUCGGUUUAAAAGGCAAGACCGUCAAAUUGCGGGAAAGGGGUCAACAGCCGUUCAGUACCAAGUCUCAGGGGAAACUUUGAGAUGGCCUUGCAAAGGGUAUGGUAAUAAGCUGACGGACAUGGUCCUAACCACGCAGCCAAGUCCUAAGUCAACAGAUCUUCUGUUGAUAUGGAUGCAGUUCACAGACUAAAUGUCGGUCGGGGAAGAUGUAUUCUUCUCAUAAGAUAUAGUCGGACCUCUCCUUAAUGGGAGCUAGCGGAUGAAGUGAUGCAACACUGGAGCCGCUGGGAACUAAUUUGUAUGCGAAAGUAUAUUGAUUAGUUUUGGAGUACUCGUGGUCG
Procedure, shortened: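 A randomised library covering all eight P1ex-region intron nucleotides was built with the intron in the knt kanamycin-resistance gene on pET-22b(+) and held in E. coli BL21(DE3). Cells were grown overnight at 37°C or 30°C on LB agar, with or without 25 μg/mL kanamycin, plus 100 μg/mL carbenicillin, 50 μM IPTG and 0.2% rhamnose, and pooled colonies were amplicon-sequenced on an Illumina HiSeq 2500. DiMSum fitness is the error-weighted combination of wild-type-normalised replicate fold changes, kanamycin versus none.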

| Sequence | self-splicing fitness (ln) (30 °C) | self-splicing fitness (ln) (37 °C) |
| --- | --- | --- |
| GAUAAGCAAUAUUACGACGG | -2.96 ± 0.17 | -2.34 ± 0.27 |
| UUACAGCAAUAUUACGUUAA | -1.12 ± 0.11 | -0.847 ± 0.085 |
| UACCAGCAAUAUUACGCUGU | -3.86 ± 0.17 | -1.36 ± 0.13 |
| CCACAGCAAUAUUACGUUUG | -1.7 ± 0.054 | -0.24 ± 0.069 |
| AUGGAGCAAUAUUACGUCGC | -2.11 ± 0.47 | -1.78 ± 0.48 |
| GUGGAGCAAUAUUACGUAAC | -0.784 ± 0.18 | -0.991 ± 0.28 |
| CAUAAGCAAUAUUACGAUAA | -4.17 ± 0.37 | -1.45 ± 0.2 |
| GGCGAGCAAUAUUACGGAAA | -1.06 ± 0.48 | – |
| AGUAAGCAAUAUUACGUGAU | -3.15 ± 0.2 | -2.33 ± 0.2 |
| AACCAGCAAUAUUACGCUGC | -2.31 ± 0.18 | -3.1 ± 0.24 |
| GACAAGCAAUAUUACGGGAG | -3.18 ± 0.11 | -1.52 ± 0.1 |
| AGUUAGCAAUAUUACGGCGG | -0.53 ± 0.085 | -0.514 ± 0.13 |
| ACUGAGCAAUAUUACGGCAA | -2.13 ± 0.14 | -2.33 ± 0.21 |
| UAAGAGCAAUAUUACGGUCU | -3.26 ± 0.4 | -2.04 ± 0.24 |
| CAGGAGCAAUAUUACGCGCA | -3.62 ± 0.3 | -1.62 ± 0.25 |
| CCGAAGCAAUAUUACGGACA | – | -1.57 ± 0.2 |
| AUGUAGCAAUAUUACGACGG | -2.09 ± 0.18 | -1.5 ± 0.17 |
| CUCGAGCAAUAUUACGCCUA | – | -0.858 ± 0.46 |
| GCAUAGCAAUAUUACGCGCC | -3.02 ± 0.49 | -1.93 ± 0.36 |
| GGAGAGCAAUAUUACGCUCG | -2.7 ± 0.24 | -2.45 ± 0.19 |
| GAUCAGCAAUAUUACGCAGG | -3.3 ± 0.29 | -1.09 ± 0.12 |
| GUAGAGCAAUAUUACGUACG | -1.92 ± 0.19 | -1.35 ± 0.35 |
| GCGAAGCAAUAUUACGGUCC | -3.6 ± 0.25 | -2.27 ± 0.31 |
| CACCAGCAAUAUUACGAGCC | -3.37 ± 0.27 | -2.92 ± 0.32 |
| GUCGAGCAAUAUUACGGGCU | -2.06 ± 0.23 | -1.53 ± 0.28 |

| Sequence | self-splicing fitness (ln) (30 °C) | self-splicing fitness (ln) (37 °C) |
| --- | --- | --- |
| GAUAAGCAAUAUUACGAAAG | -2.76 ± 0.18 | -1.66 ± 0.21 |
| ACUAAGCAAUAUUACGUGCA | -1.37 ± 0.073 | -0.431 ± 0.11 |
| AUUUAGCAAUAUUACGAAUU | -3.21 ± 0.35 | -1.85 ± 0.38 |
| CGGGAGCAAUAUUACGUGUA | -4.05 ± 0.39 | -1.47 ± 0.22 |
| ACCCAGCAAUAUUACGGCUC | -1.46 ± 0.058 | -0.423 ± 0.073 |
| GACGAGCAAUAUUACGACGG | -1.82 ± 0.28 | – |
| CCGAAGCAAUAUUACGAUUU | -1.44 ± 0.16 | -2.58 ± 0.24 |
| UCUCAGCAAUAUUACGCCUU | -3.77 ± 0.33 | -2.15 ± 0.21 |
| UCAUAGCAAUAUUACGAUUC | -2.39 ± 0.18 | -2.6 ± 0.33 |
| GGUGAGCAAUAUUACGUUCC | -1.39 ± 0.18 | -0.666 ± 0.24 |
| CAAAAGCAAUAUUACGUUAC | -3.12 ± 0.22 | -2.33 ± 0.23 |
| ACUAAGCAAUAUUACGAGUC | -3.83 ± 0.42 | -2.73 ± 0.2 |
| CUCGAGCAAUAUUACGCUGU | – | -2.66 ± 0.44 |
| AACCAGCAAUAUUACGCGCC | -0.668 ± 0.1 | -0.521 ± 0.12 |
| ACAAAGCAAUAUUACGCUUU | -3.64 ± 0.24 | -2.16 ± 0.17 |
| CUGGAGCAAUAUUACGCUAG | – | -2.79 ± 0.36 |
| GCAAAGCAAUAUUACGACUC | -0.773 ± 0.13 | 0.0939 ± 0.11 |
| CCUGAGCAAUAUUACGGCAU | -3.93 ± 0.23 | -4.08 ± 0.42 |
| ACAAAGCAAUAUUACGGAAC | -3.33 ± 0.13 | -2.43 ± 0.15 |
| UGGGAGCAAUAUUACGCGAG | -1.25 ± 0.19 | -2.26 ± 0.27 |
| CAACAGCAAUAUUACGAGGA | -3.65 ± 0.25 | -0.828 ± 0.1 |
| UUUGAGCAAUAUUACGAGAG | -2.2 ± 0.32 | – |
| ACGCAGCAAUAUUACGUCCA | -1.28 ± 0.11 | -1.13 ± 0.1 |
| CUAUAGCAAUAUUACGGACG | 0.217 ± 0.093 | 0.437 ± 0.12 |
| UCUAAGCAAUAUUACGCGAG | -3.69 ± 0.25 | -1.6 ± 0.17 |

From the supplement of paper PMC7877785
